In US20120108503A1:

Molecular target: hepatic leptin receptor (rat) (UniProt Q62959)
Assay: cell-based or functional assay

Chain of UniProt Q62959 (Q62959 22-1162): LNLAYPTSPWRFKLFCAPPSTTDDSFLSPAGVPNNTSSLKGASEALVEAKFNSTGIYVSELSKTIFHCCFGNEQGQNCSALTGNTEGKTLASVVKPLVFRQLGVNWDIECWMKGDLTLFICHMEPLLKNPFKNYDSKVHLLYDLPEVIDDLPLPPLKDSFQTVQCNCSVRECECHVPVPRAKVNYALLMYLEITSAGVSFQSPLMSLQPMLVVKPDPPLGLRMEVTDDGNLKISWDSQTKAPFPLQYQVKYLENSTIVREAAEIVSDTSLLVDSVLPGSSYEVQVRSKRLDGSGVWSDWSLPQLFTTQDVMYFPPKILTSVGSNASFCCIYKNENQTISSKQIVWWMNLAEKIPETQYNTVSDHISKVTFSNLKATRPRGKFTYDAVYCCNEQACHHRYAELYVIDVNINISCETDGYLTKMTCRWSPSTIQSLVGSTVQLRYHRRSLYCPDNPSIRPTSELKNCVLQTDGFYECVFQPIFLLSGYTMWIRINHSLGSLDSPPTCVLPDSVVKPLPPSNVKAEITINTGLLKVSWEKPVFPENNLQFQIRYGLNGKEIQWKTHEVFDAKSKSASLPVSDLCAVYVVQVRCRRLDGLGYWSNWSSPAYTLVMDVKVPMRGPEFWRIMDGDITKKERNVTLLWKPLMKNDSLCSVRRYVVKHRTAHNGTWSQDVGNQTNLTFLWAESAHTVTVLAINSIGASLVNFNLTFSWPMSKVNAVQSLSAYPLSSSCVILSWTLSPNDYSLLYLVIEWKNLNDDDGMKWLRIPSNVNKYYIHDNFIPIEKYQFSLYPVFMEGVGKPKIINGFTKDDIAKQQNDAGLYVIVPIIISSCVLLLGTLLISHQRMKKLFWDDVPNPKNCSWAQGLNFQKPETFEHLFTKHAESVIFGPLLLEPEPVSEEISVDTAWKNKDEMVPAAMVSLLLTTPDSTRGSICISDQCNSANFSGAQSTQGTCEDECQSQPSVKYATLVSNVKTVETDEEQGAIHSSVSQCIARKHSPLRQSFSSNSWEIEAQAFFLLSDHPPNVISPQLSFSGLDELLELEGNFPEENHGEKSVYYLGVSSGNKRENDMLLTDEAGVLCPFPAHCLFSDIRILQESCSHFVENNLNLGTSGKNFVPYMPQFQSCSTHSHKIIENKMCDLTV

“leptin expressed in vivo from adenovirus containing the leptin cDNA (Adv-leptin) (ligand)” gave a hepatic phosho-STAT-3 of 3 fold.
